Data taken from patent US20250154287A1 (Pfizer, published 2025).
Blank lines part the entries; values can stand above or below the binder they belong to.

What was measured:
Long MIGIS-α form = target: T1, Long MIGIS-α form (human); assay: crystal structure
T1 construct: fused to the N-terminus of the VH of Fab-0027 in the crystal; also called long MIGIS-α peptide; Long Form
T1 peptide: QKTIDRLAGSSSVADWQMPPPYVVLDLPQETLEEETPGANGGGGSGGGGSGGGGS

Short MIGIS-α form = target: T2, Short MIGIS-α form (human); assay: crystal structure
T2 construct: fused to the N-terminus of the VH of Fab-0027 in the crystal; also called Short Form
T2 peptide: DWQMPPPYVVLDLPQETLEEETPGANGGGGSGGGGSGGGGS

[1] = target: recombinant human CD3 epsilon (human, UniProt P07766 23-126, limits assumed); assay: SPR
Chain of recombinant human CD3 epsilon (P07766 23-126 limits assumed): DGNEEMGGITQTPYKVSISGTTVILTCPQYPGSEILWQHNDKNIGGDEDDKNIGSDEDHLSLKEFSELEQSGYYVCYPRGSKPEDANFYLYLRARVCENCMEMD

[2] = target: T3, biotinylated cyno MIGIS-α peptide (cynomolgus monkey); assay: SPR, OAA format
T3 construct: domain: MIGIS-α

[3] = target: T4, biotinylated human MIGIS-α peptide (human, biotinylated); assay: SPR, OAA format
T4 peptide: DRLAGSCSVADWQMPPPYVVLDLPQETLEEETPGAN

[4] = target: T3, biotinylated cyno MIGIS-α peptide; assay: SPR (Biacore T200, 37 C), biotinylated peptide captured, OAA as analyte, 1:1 fit
[5] = target: T4, biotinylated human MIGIS-α peptide; assay: as above
[6] = target: T5, human membrane IgA overexpressed on Ramos cells (human); assay: flow cytometry on IgA Ramos cells, OAA format; reference
T5 construct: its MIGIS-α segment is the short form; also called IgA^+ Ramos; human IgA^+ RAMOS cells
T5 sequence (heavy, as listed by the source): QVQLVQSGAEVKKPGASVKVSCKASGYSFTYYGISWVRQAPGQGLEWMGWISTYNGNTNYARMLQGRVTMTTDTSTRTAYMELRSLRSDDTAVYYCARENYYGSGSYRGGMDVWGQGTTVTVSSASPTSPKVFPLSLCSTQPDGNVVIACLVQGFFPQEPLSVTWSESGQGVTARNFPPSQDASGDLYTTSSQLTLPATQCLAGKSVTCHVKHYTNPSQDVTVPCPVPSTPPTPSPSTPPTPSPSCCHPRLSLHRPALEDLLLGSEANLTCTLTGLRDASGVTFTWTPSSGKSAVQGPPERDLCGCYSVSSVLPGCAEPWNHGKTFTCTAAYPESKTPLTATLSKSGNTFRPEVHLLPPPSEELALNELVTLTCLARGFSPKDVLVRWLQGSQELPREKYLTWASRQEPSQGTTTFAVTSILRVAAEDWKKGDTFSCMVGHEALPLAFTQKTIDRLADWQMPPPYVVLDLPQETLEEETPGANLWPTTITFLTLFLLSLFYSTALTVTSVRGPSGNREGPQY

[7] = target: T6, human membrane IgA (mIgA), endogenously expressed on primary B cells and DAKIKI cells (human, UniProt P01876 1-398); assay: cell-based or functional assay
T6 sequence (P01876 whole entry): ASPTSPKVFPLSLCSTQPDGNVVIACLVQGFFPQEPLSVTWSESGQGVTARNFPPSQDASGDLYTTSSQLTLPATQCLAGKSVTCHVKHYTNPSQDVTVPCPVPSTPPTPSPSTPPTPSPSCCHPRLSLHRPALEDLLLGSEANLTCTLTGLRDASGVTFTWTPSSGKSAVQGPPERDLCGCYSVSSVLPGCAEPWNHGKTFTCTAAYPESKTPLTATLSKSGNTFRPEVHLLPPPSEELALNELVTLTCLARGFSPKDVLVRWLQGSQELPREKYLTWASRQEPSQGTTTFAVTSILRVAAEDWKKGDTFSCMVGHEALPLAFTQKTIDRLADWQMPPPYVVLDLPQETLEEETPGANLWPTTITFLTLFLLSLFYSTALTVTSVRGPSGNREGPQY

[8] = target: T6, human membrane IgA (mIgA), endogenously …; assay: flow cytometry on primary human IgA+ memory B cells, mean of 3 donors
[9] = target: T7, parental (IgA^-) Ramos cell line, which expresses only cell surface IgM (UniProt P01871 1-474); assay: flow cytometry on parental Ramos cells (IgM only), MFI minus background
T7 construct: whole, on cells; Negative control cells without membrane IgA; also called mIgA negative Ramos cells; parental Ramos
T7 sequence (P01871 whole entry): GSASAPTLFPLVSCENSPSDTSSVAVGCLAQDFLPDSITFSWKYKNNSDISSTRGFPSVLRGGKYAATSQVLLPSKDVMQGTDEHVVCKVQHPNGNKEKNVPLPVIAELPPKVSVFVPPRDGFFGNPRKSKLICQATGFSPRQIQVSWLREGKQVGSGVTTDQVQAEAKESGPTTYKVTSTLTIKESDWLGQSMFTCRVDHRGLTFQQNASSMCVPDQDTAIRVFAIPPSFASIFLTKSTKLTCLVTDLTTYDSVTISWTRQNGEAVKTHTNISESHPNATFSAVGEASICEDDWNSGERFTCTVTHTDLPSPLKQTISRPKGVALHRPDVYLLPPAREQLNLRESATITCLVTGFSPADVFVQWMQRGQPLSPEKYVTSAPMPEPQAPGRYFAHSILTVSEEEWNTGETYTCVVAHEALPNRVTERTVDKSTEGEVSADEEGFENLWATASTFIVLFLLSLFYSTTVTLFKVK

[10] = target: T6, human membrane IgA (mIgA), endogenously …; assay: cell-based or functional assay; remark: listed apart in the source
[11] = target: T8, membrane IgD on human IgD^+ (IgA^-) primary B cells (human, UniProt P01880 1-430); assay: flow cytometry on primary human B cells, gate IgD+ CD19+, MFI minus background
T8 construct: whole, on cells; Negative control cell population without membrane IgA; also called CD19^+, IgD^+ B cell populations; IgD cells
T8 sequence (heavy, looked up): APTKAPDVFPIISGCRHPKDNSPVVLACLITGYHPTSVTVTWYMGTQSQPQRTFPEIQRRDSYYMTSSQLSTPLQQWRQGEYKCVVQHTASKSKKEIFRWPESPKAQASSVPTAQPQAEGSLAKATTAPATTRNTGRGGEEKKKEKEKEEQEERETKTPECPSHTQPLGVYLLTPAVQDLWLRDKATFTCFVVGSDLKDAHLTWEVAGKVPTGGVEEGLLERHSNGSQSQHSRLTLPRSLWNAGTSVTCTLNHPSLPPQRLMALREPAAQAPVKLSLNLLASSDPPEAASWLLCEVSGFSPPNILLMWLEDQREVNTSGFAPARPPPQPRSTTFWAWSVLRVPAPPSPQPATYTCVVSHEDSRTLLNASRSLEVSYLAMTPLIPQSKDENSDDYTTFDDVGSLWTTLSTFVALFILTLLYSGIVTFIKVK

[12] = target: T5, human membrane IgA overexpressed on …; assay: flow cytometry on human IgA+ Ramos cells, mean of 3 experiments
[13] = target: cynomolgus monkey membrane IgA (cynomolgus monkey); assay: cell-based or functional assay
[14] = target: T6, human membrane IgA (mIgA), endogenously …; assay: cell-based or functional assay; remark: listed apart in the source

B2: BMD-IgA-1156 (anti-CD3 binding arm h2B5v6) (antibody, V domains shown)
VH: EVQLVESGGGLVQPGGSLRLSCAASGFTFSDYYMTWVRQAPGKGLEWVAFIRNQARGYTSDHNPSVKGRFTISRDNAKNSLYLQMNSLRAEDTAVYYCARDRPSYYVLDYWGQGTTVTVSS
VL: DIQMTQSPSSLSASVGDRVTITCTSSQSLFNVRSQKNYLAWYQQKPGKAPKLLIYWASTRESGVPSRFSGSGSGTDFTLTISSLQPEDFATYYCKQSYDLFTFGGGTKVEIKR
notes: Only the anti-CD3 chains are tied to this name
Kd [1]: 17 nM

B3: GBT-IgA-0071 (T18 in one armed format) (antibody)
heavy: not shown
chain: EPKSSDKTHTCPPCPAPEAAGAPSVFLFPPKPKDTLMISRTPEVTCVVVDVSHEDPEVKFNWYVDGVEVHNAKTKPREEQYNSTYRVVSVLTVLHQDWLNGKEYKCKVSNKALPAPIEKTISKAKGQPREPQVYTLPPCREEMTKNQVSLSCAVKGFYPSDIAVEWESNGQPENNYKTTPPVLDSDGSFFLVSKLTVDKSRWQQGNVFSCSVMHEALHNRYTQKSLSLSPGK
light: not shown
notes: One-armed antibody; also called T18 OAA
fold improved binding over GBT-IgA-0070 (H05 OAA) [2]: ~5 fold
fold improved affinity over GBT-IgA-0070 (H05 OAA) [3]: ~20 fold
Kd [4]: 11.9 nM
koff [4]: 0.0132 s⁻¹
kon [4]: 1.1e+06 M⁻¹ s⁻¹
Kd [5]: 10.7 nM
koff [5]: 0.0316 s⁻¹
kon [5]: 2.96e+06 M⁻¹ s⁻¹
Fold Diff EC50 (OAA format in IgA Ramos by FLOW) [6]: 1 fold

Continued, in another order:

binding result (Long MIGIS-α form): binds
binding result (Short MIGIS-α form): binds
B1: Fab of GBT-IgA-0027 (Fab-0027) (Fab, V domains shown)
VH: QVQLVESGGGVVQPGRSLRLSCAASGFTFSSYGMHWVRQAPGKGLEWVAVISYDGSNKYYADSVKGRFTISRDNSKNTLYLQMNSLRAEDTAVYYCAKLYGGNPKDTIYHWGRGTLVTVSS
VL: not shown
notes: Fab; constant parts not specified; antigen and Fab are written here as two molecules; also called VH-Fab-0027; T18 Fab

EC50 [8]: 49.8 nM
binding result [9]: no binding (tested: about 300 nM)
binding result [11]: no binding (tested: about 500 nM)
EC50 [12]: 40.5 nM
B4: GBT-IgA-1602, anti-MIGIS-α/CD3 bispecific antibody (bispecific antibody)
heavy 1: not shown
light 1: not shown
heavy 2: EVQLVESGGGLVQPGGSLRLSCAASGFTFSDYYMTWVRQAPGKGLEWVAFIRNQARGYTSDHNPSVKGRFTISRDNAKNSLYLQMNSLRAEDTAVYYCARDRPSYYVLDYWGQGTTVTVSSASTKGPSVFPLAPSSKSTSGGTAALGCLVKDYFPEPVTVSWNSGALTSGVHTFPAVLQSSGLYSLSSVVTVPSSSLGTQTYICNVNHKPSNTKVDKKVEPKSCEKTHTCPPCPAPEAAGAPSVFLFPPKPKDTLMISRTPEVTCVVVDVSHEDPEVKFNWYVDGVEVHNAKTKPREEQYNSTYRVVSVLTVLHQDWLNGKEYKCKVSNKALPAPIEKTISKAKGQPREPQVYTLPPSREEMTKNQVSLTCEVKGFYPSDIAVEWESNGQPENNYKTTPPVLDSDGSFFLYSKLTVDKSRWQQGNVFSCSVMHEALHNHYTQKSLSLSPGK
light 2: DIQMTQSPSSLSASVGDRVTITCTSSQSLFNVRSQKNYLAWYQQKPGKAPKLLIYWASTRESGVPSRFSGSGSGTDFTLTISSLQPEDFATYYCKQSYDLFTFGGGTKVEIKRTVAAPSVFIFPPSDEQLKSGTASVVCLLNNFYPREAKVQWKVDNALQSGNSQESVTEQDSKDSTYSLSSTLTLSKADYEKHKVYACEVTHQGLSSPVTKSFNRGEC
EC50 (nM), IgA^+ memory B cell kill [7]: 0.587 nM
EC50 (nM), IgA producing B cell kill [10]: 1.5 nM
Primary cell killing, potency EC50 (nM), cyno memory membrane IgA+ [13]: 0.19 nM
Primary cell killing, potency EC50 (nM), cyno soluble plasma cells (IgA secreting) [13]: 1.34 nM
Primary cell killing, potency EC50 (nM), human memory B cells (membrane IgA+) [14]: 0.73 nM
Primary cell killing, potency EC50 (nM), human plasma cells (IgA secreting) [14]: 1.67 nM
